From patent US20240165282A1, “CONFORMATIONAL CONSTRAINED SOMATOSTATIN RECEPTOR 3 PEPTIDE LIGANDS AND THEIR CONJUGATES AND USES THEREOF” (STARGET PHARMA LTD., priority 2021, published 2024)
*1 amine or outer side, *2 acyl side, *3 side chain or, on linkers, in order; H or OH if unused. Bridges are numbered along the chain shown (N, C = ends). [ ]: non-standard residue; d: D form. The star is where a group is joined. DOTA = O=C(O)CN1CCN(CC(=O)O)CCN(CC(=O)*)CCN(CC(=O)O)CC1; N(2-mercaptoethyl)Gly = O=C(CN(CCS[*:3])[*:1])[*:2]

Legend:
Test in all cases: cell-based or functional assay
CXCR6 (human) = CXCR6 (human) (UniProt O00574)
GPR120 (human) = GPR120 (human) (UniProt Q5NUL3)
FPR1 (human) = FPR1 (human) (UniProt P21462)
MTNR1A (human) = MTNR1A (human) (UniProt P48039)
GPR119 (human) = GPR119 (human) (UniProt Q8TDV5)
(CR)R-RAMP3 (human) = (CR)R-RAMP3 (human) (UniProt P30988)
AVPR2 (human) = AVPR2 (human) (UniProt P30518)
GLP2R (human) = GLP2R (human) (UniProt O95838)
GPR109A (human) = GPR109A (human) (UniProt Q8TDS4)
Chain of GPR109A (human) (Q8TDS4 whole entry): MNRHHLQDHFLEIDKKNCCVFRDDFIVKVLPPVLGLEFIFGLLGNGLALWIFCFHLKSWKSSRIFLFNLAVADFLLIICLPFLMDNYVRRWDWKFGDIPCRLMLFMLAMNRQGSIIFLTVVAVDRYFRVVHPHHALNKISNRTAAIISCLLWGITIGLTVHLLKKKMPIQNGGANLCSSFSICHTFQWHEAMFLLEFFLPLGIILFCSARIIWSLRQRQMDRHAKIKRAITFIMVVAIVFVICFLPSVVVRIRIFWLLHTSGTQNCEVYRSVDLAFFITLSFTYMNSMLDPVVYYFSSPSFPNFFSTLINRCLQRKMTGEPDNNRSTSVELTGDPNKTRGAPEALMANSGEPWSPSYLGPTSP

[1] = target: human cloned somatostatin receptor 5 (human) (UniProt P35346)
CCR9 (human) = CCR9 (human) (UniProt P51686)
CXCR1 (human) = CXCR1 (human) (UniProt P25024)
GALR2 (human) = GALR2 (human) (UniProt O43603)
Chain of GALR2 (human) (O43603 whole entry): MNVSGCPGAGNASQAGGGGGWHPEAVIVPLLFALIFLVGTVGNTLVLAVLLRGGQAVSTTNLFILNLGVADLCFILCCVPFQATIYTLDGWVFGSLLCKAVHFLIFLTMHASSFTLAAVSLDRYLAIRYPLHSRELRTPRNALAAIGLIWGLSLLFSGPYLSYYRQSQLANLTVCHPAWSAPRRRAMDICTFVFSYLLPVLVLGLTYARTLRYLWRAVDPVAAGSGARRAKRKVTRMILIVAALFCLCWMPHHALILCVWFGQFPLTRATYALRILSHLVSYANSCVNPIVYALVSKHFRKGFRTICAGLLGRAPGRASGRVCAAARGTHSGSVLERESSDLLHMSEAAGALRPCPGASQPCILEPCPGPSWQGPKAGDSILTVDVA

MC5R (human) = MC5R (human) (UniProt P33032)
C3AR1 (human) = C3AR1 (human) (UniProt Q16581)
HTR5A (human) = HTR5A (human) (UniProt P47898)
CRTH2 (human) = CRTH2 (human) (UniProt Q9Y5Y4)
PTGER2 (human) = PTGER2 (human) (UniProt P43116)
HTR1B (human) = HTR1B (human) (UniProt P28222)
BRS3 (human) = BRS3 (human) (UniProt P32247)
Chain of BRS3 (human) (P32247 whole entry): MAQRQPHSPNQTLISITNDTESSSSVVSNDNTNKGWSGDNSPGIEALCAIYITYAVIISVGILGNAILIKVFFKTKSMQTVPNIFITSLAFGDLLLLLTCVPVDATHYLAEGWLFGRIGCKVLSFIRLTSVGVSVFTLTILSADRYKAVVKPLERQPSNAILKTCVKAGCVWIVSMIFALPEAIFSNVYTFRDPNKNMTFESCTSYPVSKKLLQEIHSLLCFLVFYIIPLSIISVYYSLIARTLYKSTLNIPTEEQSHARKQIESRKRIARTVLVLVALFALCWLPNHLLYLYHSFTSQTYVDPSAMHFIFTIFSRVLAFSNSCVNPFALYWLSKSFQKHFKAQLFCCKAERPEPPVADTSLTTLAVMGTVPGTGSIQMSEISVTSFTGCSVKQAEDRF

CXCR7 (human) = CXCR7 (human) (UniProt P25106)
CXCR2 (human) = CXCR2 (human) (UniProt P25025)
CCR10 (human) = CCR10 (human) (UniProt P46092)
Chain of CCR10 (human) (P46092 whole entry): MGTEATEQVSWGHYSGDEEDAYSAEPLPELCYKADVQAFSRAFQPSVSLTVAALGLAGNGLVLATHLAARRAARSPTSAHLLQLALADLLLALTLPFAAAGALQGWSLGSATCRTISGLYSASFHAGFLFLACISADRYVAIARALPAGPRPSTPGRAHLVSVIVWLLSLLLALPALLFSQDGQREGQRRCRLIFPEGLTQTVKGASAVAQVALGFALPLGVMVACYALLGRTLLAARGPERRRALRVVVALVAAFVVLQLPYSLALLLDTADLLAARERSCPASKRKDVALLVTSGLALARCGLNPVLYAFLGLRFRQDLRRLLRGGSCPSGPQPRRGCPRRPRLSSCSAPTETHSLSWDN

PTGER3 (human) = PTGER3 (human) (UniProt P43115)
PPYR1 (human) = PPYR1 (human) (UniProt P50391)
Chain of PPYR1 (human) (P50391 whole entry): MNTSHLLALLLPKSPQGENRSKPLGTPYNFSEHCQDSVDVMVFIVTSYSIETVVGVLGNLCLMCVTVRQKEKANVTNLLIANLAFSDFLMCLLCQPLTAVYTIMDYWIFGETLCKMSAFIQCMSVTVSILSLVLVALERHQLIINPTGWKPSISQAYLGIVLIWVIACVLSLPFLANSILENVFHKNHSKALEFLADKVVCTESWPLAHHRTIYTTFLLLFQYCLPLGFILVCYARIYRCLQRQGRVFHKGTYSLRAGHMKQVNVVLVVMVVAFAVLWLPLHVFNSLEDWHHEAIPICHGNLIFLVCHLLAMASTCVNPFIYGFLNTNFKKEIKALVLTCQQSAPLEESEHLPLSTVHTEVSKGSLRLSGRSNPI

PTGER4 (human) = PTGER4 (human) (UniProt P35408)
Chain of PTGER4 (human) (P35408 whole entry): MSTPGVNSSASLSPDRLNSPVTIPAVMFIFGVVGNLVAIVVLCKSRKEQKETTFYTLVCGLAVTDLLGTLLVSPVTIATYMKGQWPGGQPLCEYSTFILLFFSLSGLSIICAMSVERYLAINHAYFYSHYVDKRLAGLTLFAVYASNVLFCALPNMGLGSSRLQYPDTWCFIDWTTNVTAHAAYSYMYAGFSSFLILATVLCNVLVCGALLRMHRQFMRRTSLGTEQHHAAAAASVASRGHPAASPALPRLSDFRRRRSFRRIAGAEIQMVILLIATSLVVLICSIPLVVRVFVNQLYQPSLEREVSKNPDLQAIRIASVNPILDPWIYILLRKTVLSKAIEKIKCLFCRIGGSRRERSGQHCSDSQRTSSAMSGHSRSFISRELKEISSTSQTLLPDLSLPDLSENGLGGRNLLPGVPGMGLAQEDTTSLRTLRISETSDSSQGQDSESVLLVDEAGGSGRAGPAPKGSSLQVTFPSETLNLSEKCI

CXCR5 (human) = CXCR5 (human) (UniProt P32302)
[2] = target: human cloned somatostatin receptor 1 (human) (UniProt P30872)
EDG3 (human) = EDG3 (human) (UniProt Q99500)
CCR8 (human) = CCR8 (human) (UniProt P51685)
HTR1A (human) = HTR1A (human) (UniProt P08908)
[3] = target: human cloned somatostatin receptor 2 (human) (UniProt P30874)
P2RY2 (human) = P2RY2 (human) (UniProt P41231)
CCKBR (human) = CCKBR (human) (UniProt P32239)
Chain of CCKBR (human) (P32239 whole entry): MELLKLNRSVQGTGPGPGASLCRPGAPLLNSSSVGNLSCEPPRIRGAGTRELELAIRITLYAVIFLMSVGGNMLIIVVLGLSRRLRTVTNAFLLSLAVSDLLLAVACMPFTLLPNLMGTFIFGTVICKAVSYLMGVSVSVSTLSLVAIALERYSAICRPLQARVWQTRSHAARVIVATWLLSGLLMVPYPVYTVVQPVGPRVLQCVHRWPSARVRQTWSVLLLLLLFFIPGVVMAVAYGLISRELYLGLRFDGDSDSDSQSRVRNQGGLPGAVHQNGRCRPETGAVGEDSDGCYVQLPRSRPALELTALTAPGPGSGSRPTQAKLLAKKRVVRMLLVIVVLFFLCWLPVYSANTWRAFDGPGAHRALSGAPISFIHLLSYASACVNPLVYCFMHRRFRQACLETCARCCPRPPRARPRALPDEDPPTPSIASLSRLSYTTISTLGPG

BDKRB1 (human) = BDKRB1 (human) (UniProt P46663)
MC3R (human) = MC3R (human) (UniProt P41968)
CX3CR1 (human) = CX3CR1 (human) (UniProt P49238)
MCHR2 (human) = MCHR2 (human) (UniProt Q969V1)
NPSR1b (human) = NPSR1b (human) (UniProt Q6W5P4)
HCRTR1 (human) = HCRTR1 (human) (UniProt O43613)
F2RL1 (human) = F2RL1 (human) (UniProt P55085)
GPR92 (human) = GPR92 (human) (UniProt Q9H1C0)
CHRM5 (human) = CHRM5 (human) (UniProt P08912)
ADRA1B (human) = ADRA1B (human) (UniProt P35368)
DRD4 (human) = DRD4 (human) (UniProt P21917)
FPRL1 (human) = FPRL1 (human) (UniProt P25090)
ADRA2A (human) = ADRA2A (human) (UniProt P08913)
UTR2 (human) = UTR2 (human) (UniProt Q9UKP6)
DRD5 (human) = DRD5 (human) (UniProt P21918)
C5aR1 (human) = C5aR1 (human) (UniProt P21730)
EDG5 (human) = EDG5 (human) (UniProt O95136)
Chain of EDG5 (human) (O95136 whole entry): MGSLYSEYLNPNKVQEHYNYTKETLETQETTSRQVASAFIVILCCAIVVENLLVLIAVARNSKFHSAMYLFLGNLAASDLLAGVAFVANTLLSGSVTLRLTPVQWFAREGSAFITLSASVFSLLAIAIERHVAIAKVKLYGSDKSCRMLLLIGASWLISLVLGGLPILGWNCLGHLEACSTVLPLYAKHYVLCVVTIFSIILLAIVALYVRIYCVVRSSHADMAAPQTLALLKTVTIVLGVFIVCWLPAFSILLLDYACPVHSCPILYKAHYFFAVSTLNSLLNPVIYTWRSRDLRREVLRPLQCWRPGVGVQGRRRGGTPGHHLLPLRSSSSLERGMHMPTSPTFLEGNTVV

OPRD1 (human) = OPRD1 (human) (UniProt P41143)
GHSR (human) = GHSR (human) (UniProt Q92847)
Chain of GHSR (human) (Q92847 whole entry): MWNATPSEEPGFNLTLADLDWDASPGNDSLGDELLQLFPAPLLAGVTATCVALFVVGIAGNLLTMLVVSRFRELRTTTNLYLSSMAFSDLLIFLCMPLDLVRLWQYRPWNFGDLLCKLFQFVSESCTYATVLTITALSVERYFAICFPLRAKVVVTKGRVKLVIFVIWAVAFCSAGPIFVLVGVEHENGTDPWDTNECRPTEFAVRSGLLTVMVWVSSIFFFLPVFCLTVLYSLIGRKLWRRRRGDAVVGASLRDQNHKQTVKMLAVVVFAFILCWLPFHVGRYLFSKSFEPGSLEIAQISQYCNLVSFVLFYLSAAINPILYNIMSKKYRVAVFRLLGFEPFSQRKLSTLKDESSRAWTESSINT

NPY2R (human) = NPY2R (human) (UniProt P49146)
P2RY12 (human) = P2RY12 (human) (UniProt Q9H244)
Chain of P2RY12 (human) (Q9H244 whole entry, one chain of several): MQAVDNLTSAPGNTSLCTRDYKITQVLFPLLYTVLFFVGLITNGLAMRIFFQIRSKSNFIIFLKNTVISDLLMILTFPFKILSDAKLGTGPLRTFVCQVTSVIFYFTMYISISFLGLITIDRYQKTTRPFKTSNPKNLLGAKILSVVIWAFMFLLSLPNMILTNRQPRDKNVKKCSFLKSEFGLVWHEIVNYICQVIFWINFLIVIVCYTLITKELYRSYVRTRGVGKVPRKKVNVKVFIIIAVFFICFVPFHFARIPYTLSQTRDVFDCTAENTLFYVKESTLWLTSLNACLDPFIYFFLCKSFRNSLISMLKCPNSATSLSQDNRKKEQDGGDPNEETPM

VIPR1 (human) = VIPR1 (human) (UniProt P32241)
EDG4 (human) = EDG4 (human) (UniProt Q9HBW0)
Chain of EDG4 (human) (Q9HBW0 whole entry): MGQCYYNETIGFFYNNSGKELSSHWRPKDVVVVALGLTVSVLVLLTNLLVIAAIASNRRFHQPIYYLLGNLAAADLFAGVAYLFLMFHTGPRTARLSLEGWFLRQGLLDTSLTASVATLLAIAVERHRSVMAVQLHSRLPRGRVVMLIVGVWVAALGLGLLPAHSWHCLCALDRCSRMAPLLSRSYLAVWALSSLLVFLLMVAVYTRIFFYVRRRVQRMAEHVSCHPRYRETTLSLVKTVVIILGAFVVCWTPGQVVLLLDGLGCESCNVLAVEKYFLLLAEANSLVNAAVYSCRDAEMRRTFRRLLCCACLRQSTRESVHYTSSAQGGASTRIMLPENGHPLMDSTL

KISS1R (human) = KISS1R (human) (UniProt Q969F8)
TACR2 (human) = TACR2 (human) (UniProt P21452)
Chain of TACR2 (human) (P21452 whole entry): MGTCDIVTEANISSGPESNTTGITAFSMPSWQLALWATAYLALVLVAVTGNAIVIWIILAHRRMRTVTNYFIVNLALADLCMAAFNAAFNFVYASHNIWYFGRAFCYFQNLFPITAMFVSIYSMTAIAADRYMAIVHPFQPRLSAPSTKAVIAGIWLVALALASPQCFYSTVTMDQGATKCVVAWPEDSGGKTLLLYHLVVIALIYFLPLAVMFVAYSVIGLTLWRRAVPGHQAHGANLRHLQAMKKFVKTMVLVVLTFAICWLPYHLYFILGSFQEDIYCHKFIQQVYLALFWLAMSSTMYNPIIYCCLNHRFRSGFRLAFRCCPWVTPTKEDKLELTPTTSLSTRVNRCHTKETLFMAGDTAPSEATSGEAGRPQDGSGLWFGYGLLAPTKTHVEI

Binder: {DOTA}-[dF]RCF[dW]KTF[N(2-mercaptoethyl)Gly]-NH2 (disulfide 3-9; also: Ga complex of DOTA) [SEQ ID NO: 4]
- % Activity (agonist mode, 1 µM) (CXCR6 (human)): 1%
- % Activity (agonist mode, 1 µM) (GPR120 (human)): -4%
- % Activity (agonist mode, 1 µM) (FPR1 (human)): -1%
- % Activity (agonist mode, 1 µM) (MTNR1A (human)): -7%
- % Activity (agonist mode, 1 µM) (GPR119 (human)): 19%
- % Activity (agonist mode, 1 µM) ((CR)R-RAMP3 (human)): -13%
- % Activity (agonist mode, 1 µM) (AVPR2 (human)): 0%
- % Activity (agonist mode, 1 µM) (GLP2R (human)): -1%
- % Activity (agonist mode, 1 µM) (GPR109A (human)): 0%
- % Activity (agonist mode, 1 µM) [1]: 16%
- % Activity (agonist mode, 1 µM) (CCR9 (human)): 0%
- % Activity (agonist mode, 1 µM) (CXCR1 (human)): 0%
- % Activity (agonist mode, 1 µM) (GALR2 (human)): -4%
- % Activity (agonist mode, 1 µM) (MC5R (human)): -5%
- % Activity (agonist mode, 1 µM) (C3AR1 (human)): 0%
- % Activity (agonist mode, 1 µM) (HTR5A (human)): 0%
- % Activity (agonist mode, 1 µM) (CRTH2 (human)): -1%
- % Activity (agonist mode, 1 µM) (PTGER2 (human)): 1%
- % Activity (agonist mode, 1 µM) (HTR1B (human)): -1%
- % Activity (agonist mode, 1 µM) (BRS3 (human)): 1%
- % Activity (agonist mode, 1 µM) (CXCR7 (human)): -1%
- % Activity (agonist mode, 1 µM) (CXCR2 (human)): -1%
- % Activity (agonist mode, 1 µM) (CCR10 (human)): -2%
- % Activity (agonist mode, 1 µM) (PTGER3 (human)): 1%
- % Activity (agonist mode, 1 µM) (PPYR1 (human)): 1%
- % Activity (agonist mode, 1 µM) (PTGER4 (human)): -2%
- % Activity (agonist mode, 1 µM) (CXCR5 (human)): 0%
- % Activity (agonist mode, 1 µM) [2]: 32%
- % Activity (agonist mode, 1 µM) (EDG3 (human)): -1%
- % Activity (agonist mode, 1 µM) (CCR8 (human)): 0%
- % Activity (agonist mode, 1 µM) (HTR1A (human)): 0%
- % Activity (agonist mode, 1 µM) [3]: 9%
- % Activity (agonist mode, 1 µM) (P2RY2 (human)): 2%
- % Activity (agonist mode, 1 µM) (CCKBR (human)): 2%
- % Activity (agonist mode, 1 µM) (BDKRB1 (human)): -5%
- % Activity (agonist mode, 1 µM) (MC3R (human)): 0%
- % Activity (agonist mode, 1 µM) (CX3CR1 (human)): 0%
- % Activity (agonist mode, 1 µM) (MCHR2 (human)): 1%
- % Activity (agonist mode, 1 µM) (NPSR1b (human)): -1%
- % Activity (agonist mode, 1 µM) (HCRTR1 (human)): 0%
- % Activity (agonist mode, 1 µM) (F2RL1 (human)): -4%
- % Activity (agonist mode, 1 µM) (GPR92 (human)): 1%
- % Activity (agonist mode, 1 µM) (CHRM5 (human)): 5%
- % Activity (agonist mode, 1 µM) (ADRA1B (human)): -2%
- % Activity (agonist mode, 1 µM) (DRD4 (human)): 0%
- % Activity (agonist mode, 1 µM) (FPRL1 (human)): 0%
- % Activity (agonist mode, 1 µM) (ADRA2A (human)): 3%
- % Activity (agonist mode, 1 µM) (UTR2 (human)): 0%
- % Activity (agonist mode, 1 µM) (DRD5 (human)): -2%
- % Activity (agonist mode, 1 µM) (C5aR1 (human)): 0%
- % Activity (agonist mode, 1 µM) (EDG5 (human)): -2%
- % Activity (agonist mode, 1 µM) (OPRD1 (human)): -1%
- % Activity (agonist mode, 1 µM) (GHSR (human)): -1%
- % Activity (agonist mode, 1 µM) (NPY2R (human)): 1%
- % Activity (agonist mode, 1 µM) (P2RY12 (human)): 1%
- % Activity (agonist mode, 1 µM) (VIPR1 (human)): 0%
- % Activity (agonist mode, 1 µM) (EDG4 (human)): 6%
- % Activity (agonist mode, 1 µM) (KISS1R (human)): 0%
- % Activity (agonist mode, 1 µM) (TACR2 (human)): -1%
